In patent US20140087995A1 (published 2014):
Numbered stars: 1 amine (or outer) side, 2 acyl side, 3 side chain; on linkers, the order of the positions; unused ones are H or OH. Bridge positions count the residues as written; N and C are the ends. Side chains are listed from the residue outwards. Ends that are not written are not given here. * marks the point of attachment. C20 diacid = O=C(O)CCCCCCCCCCCCCCCCCCC(=O)*; γGlu = O=C(O)[C@H](CCC(=O)[*:2])N[*:1]

T1: human amylin receptor (amylin 3(a) receptor: human calcitonin receptor plus RAMP-3) (human, UniProt P30988 25-474; O60896 24-148)
T1 construct: whole, on cells; functional assay (II)a used the whole cells; also called hAmylin-R; hAmylinR
T1 sequence (looked up) 1: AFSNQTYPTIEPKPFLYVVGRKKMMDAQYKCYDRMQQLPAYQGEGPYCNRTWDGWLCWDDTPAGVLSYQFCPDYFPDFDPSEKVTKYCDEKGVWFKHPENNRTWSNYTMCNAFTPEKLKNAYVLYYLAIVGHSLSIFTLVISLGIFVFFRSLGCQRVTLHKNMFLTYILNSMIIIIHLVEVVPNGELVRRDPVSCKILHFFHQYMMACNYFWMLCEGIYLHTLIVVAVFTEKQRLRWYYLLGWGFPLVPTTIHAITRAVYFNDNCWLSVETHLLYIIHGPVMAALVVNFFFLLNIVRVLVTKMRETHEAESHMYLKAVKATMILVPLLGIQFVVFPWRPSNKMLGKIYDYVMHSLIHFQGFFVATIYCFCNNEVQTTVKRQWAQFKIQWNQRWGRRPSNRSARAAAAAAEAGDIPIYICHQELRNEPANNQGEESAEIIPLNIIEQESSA
T1 sequence (looked up) 2: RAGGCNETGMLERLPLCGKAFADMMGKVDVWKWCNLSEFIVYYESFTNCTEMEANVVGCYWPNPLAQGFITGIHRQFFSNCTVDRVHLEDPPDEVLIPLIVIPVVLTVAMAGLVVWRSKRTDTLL

T2: human calcitonin receptor (human, UniProt P30988 25-474)
T2 sequence (looked up): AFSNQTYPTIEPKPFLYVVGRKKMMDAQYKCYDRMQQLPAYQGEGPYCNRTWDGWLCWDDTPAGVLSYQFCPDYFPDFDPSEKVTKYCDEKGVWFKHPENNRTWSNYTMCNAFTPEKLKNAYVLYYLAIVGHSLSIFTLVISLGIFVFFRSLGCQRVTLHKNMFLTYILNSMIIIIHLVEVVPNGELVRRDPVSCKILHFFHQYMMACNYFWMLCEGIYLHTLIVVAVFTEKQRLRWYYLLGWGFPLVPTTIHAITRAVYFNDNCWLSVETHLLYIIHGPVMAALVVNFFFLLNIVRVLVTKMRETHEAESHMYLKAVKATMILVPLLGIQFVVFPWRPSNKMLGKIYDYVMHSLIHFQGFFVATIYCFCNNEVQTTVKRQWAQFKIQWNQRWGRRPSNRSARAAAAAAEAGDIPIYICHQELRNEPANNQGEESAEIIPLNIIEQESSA


Columns and labels:
[1] = target: T1, human amylin receptor (amylin 3(a) …); assay: SPA competition binding, displacement of 125I-rat amylin, membranes of BHK amylin 3(a)/CRE-luc cells
Experimental: The binding assay was performed using scintillation proximity assay (SPA) beads (RPNQ0001) from PerkinElmer and cell membranes from the Amylin 3(a)/CRE-luc cells (as described in Assay (II)) were used. Membranes were prepared in the following way; the cells were rinsed with PBS and incubated with Versene for approximately 5 min before harvesting. The cells were flushed with PBS and the cell-suspension was centrifuged for 5 min at 1000 rpm. Cells were homogenized (ultrathurrax) in a buffer containing 20 mM Na-HEPES and 10 mM EDTA (pH 7.4) and centrifuged at 20.000 rpm for 15 min. The resulting pellet was resuspended, homogenized and centrifuged (20.000 rpm, 15 min) in a buffer containing 20 mM Na-HEPES and 0.1 mM EDTA (pH 7.4, buffer 2). The resulting pellet was resuspended in buffer 2 and protein concentration was measured (BCA protein Assay, Pierce). The homogenate was kept cold during the whole procedure. The membranes were kept at −80° C. until use. The assay was performed in a 384 well Optiplate (PerkinElmer) in a total volume of 40 ul. Membranes were mixed with SPA beads. Final concentration of membranes 35 ng/μL final and SPA beads was 0.05 mg/well. Test-compounds were dissolved in DMSO and further diluted in assay buffer (50 mM Hepes, pH 7.4, 1 mM CaCl2, 5 mM MgCl₂, 0.1% OA and 0.02% Tween20). […] The final mixture was incubated with shaking at 400 rpm for 120 min at 25° C. prior to centrifugation (1500 rpm, 10 min). Samples were analyzed on TopCounter™ (Packard). The IC₅₀ was calculated using (one site binding competition analysis) GraphPad Prism5 as a measure of receptor affinity.

[2] = target: T1, human amylin receptor (amylin 3(a) …); assay: cell-based or functional assay
[3] = target: T2, human calcitonin receptor; assay: cell-based or functional assay

| Binder | IC50 [1] [nM] | Ratio hCT/hAmylin funct. [2] | hAmylin-R funct. EC50 (pM) [2] [pM] | hCTR funct. EC50 (pM) [3] [pM] |
| --- | --- | --- | --- | --- |
| K([γGlu-C20 diacid])CNTATCATQRLANFLRHSSPNFGAIPSSTNVGSHTY-NH2 (disulfide 2-7; N-terminus assumed; SMILES CC[C@H](C)[C@H](NC(=O)[C@H](C)NC(=O)CNC(=O)[C@H](Cc1ccccc1)NC(=O)[C@H](CC(N)=O)NC(=O)[C@@H]1CCCN1C(=O)[C@H](CO)NC(=O)[C@H](CO)NC(=O)[C@H](Cc1c[nH]cn1)NC(=O)[C@H](CCCNC(=N)N)NC(=O)[C@H](CC(C)C)NC(=O)[C@H](Cc1ccccc1)NC(=O)[C@H](CC(N)=O)NC(=O)[C@H](C)NC(=O)[C@H](CC(C)C)NC(=O)[C@H](CCCNC(=N)N)NC(=O)[C@H](CCC(N)=O)NC(=O)[C@@H](NC(=O)[C@H](C)NC(=O)[C@@H]1CSSC[C@H](NC(=O)[C@@H](N)CCCCNC(=O)CC[C@H](NC(=O)CCCCCCCCCCCCCCCCCCC(=O)O)C(=O)O)C(=O)N[C@@H](CC(N)=O)C(=O)N[C@@H]([C@@H](C)O)C(=O)N[C@@H](C)C(=O)N[C@@H]([C@@H](C)O)C(=O)N1)[C@@H](C)O)C(=O)N1CCC[C@H]1C(=O)N[C@@H](CO)C(=O)N[C@@H](CO)C(=O)N[C@H](C(=O)N[C@@H](CC(N)=O)C(=O)N[C@H](C(=O)NCC(=O)N[C@@H](CO)C(=O)N[C@@H](Cc1c[nH]cn1)C(=O)N[C@H](C(=O)N[C@@H](Cc1ccc(O)cc1)C(N)=O)[C@@H](C)O)C(C)C)[C@@H](C)O, also called compound 60) [N^ε1-[(4S)-4-carboxy-4-(19-carboxynonadecanoylamino)butanoyl]-[Arg17,Pro21,Pro27,His35]-h-amylin] | 0.695 | 15.3 | 351 | 5360 |
| K([γGlu-C20 diacid])CNTATCATQRLADFLRHSSPNFGAIPSSTNVGPETY-NH2 (disulfide 2-7; N-terminus assumed; SMILES CC[C@H](C)[C@H](NC(=O)[C@H](C)NC(=O)CNC(=O)[C@H](Cc1ccccc1)NC(=O)[C@H](CC(N)=O)NC(=O)[C@@H]1CCCN1C(=O)[C@H](CO)NC(=O)[C@H](CO)NC(=O)[C@H](Cc1c[nH]cn1)NC(=O)[C@H](CCCNC(=N)N)NC(=O)[C@H](CC(C)C)NC(=O)[C@H](Cc1ccccc1)NC(=O)[C@H](CC(=O)O)NC(=O)[C@H](C)NC(=O)[C@H](CC(C)C)NC(=O)[C@H](CCCNC(=N)N)NC(=O)[C@H](CCC(N)=O)NC(=O)[C@@H](NC(=O)[C@H](C)NC(=O)[C@@H]1CSSC[C@H](NC(=O)[C@@H](N)CCCCNC(=O)CC[C@H](NC(=O)CCCCCCCCCCCCCCCCCCC(=O)O)C(=O)O)C(=O)N[C@@H](CC(N)=O)C(=O)N[C@@H]([C@@H](C)O)C(=O)N[C@@H](C)C(=O)N[C@@H]([C@@H](C)O)C(=O)N1)[C@@H](C)O)C(=O)N1CCC[C@H]1C(=O)N[C@@H](CO)C(=O)N[C@@H](CO)C(=O)N[C@H](C(=O)N[C@@H](CC(N)=O)C(=O)N[C@H](C(=O)NCC(=O)N1CCC[C@H]1C(=O)N[C@@H](CCC(=O)O)C(=O)N[C@H](C(=O)N[C@@H](Cc1ccc(O)cc1)C(N)=O)[C@@H](C)O)C(C)C)[C@@H](C)O) | 0.196 | 3.9 | 288 | 1120 |

Results, then the binder that gave them:

| IC50 [1] [nM] | Ratio hCT/hAmylin funct. [2] | hAmylin-R funct. EC50 (pM) [2] [pM] | hCTR funct. EC50 (pM) [3] [pM] | Binder |
| --- | --- | --- | --- | --- |
| 0.232 | 6.5 | 421 | 2740 | K([γGlu-C20 diacid])CNTATCATQRLAEFLRHSSPNFGAIPSSTNVGRETY-NH2 (disulfide 2-7; N-terminus assumed; SMILES CC[C@H](C)[C@H](NC(=O)[C@H](C)NC(=O)CNC(=O)[C@H](Cc1ccccc1)NC(=O)[C@H](CC(N)=O)NC(=O)[C@@H]1CCCN1C(=O)[C@H](CO)NC(=O)[C@H](CO)NC(=O)[C@H](Cc1c[nH]cn1)NC(=O)[C@H](CCCNC(=N)N)NC(=O)[C@H](CC(C)C)NC(=O)[C@H](Cc1ccccc1)NC(=O)[C@H](CCC(=O)O)NC(=O)[C@H](C)NC(=O)[C@H](CC(C)C)NC(=O)[C@H](CCCNC(=N)N)NC(=O)[C@H](CCC(N)=O)NC(=O)[C@@H](NC(=O)[C@H](C)NC(=O)[C@@H]1CSSC[C@H](NC(=O)[C@@H](N)CCCCNC(=O)CC[C@H](NC(=O)CCCCCCCCCCCCCCCCCCC(=O)O)C(=O)O)C(=O)N[C@@H](CC(N)=O)C(=O)N[C@@H]([C@@H](C)O)C(=O)N[C@@H](C)C(=O)N[C@@H]([C@@H](C)O)C(=O)N1)[C@@H](C)O)C(=O)N1CCC[C@H]1C(=O)N[C@@H](CO)C(=O)N[C@@H](CO)C(=O)N[C@H](C(=O)N[C@@H](CC(N)=O)C(=O)N[C@H](C(=O)NCC(=O)N[C@@H](CCCNC(=N)N)C(=O)N[C@@H](CCC(=O)O)C(=O)N[C@H](C(=O)N[C@@H](Cc1ccc(O)cc1)C(N)=O)[C@@H](C)O)C(C)C)[C@@H](C)O) |
| 0.992 | – | 425 | 5580 | K([γGlu-C20 diacid])CNTATCATQRLAEFLRHSSPNFGAIPSSTNVGSHTY-NH2 (disulfide 2-7; N-terminus assumed; SMILES CC[C@H](C)[C@H](NC(=O)[C@H](C)NC(=O)CNC(=O)[C@H](Cc1ccccc1)NC(=O)[C@H](CC(N)=O)NC(=O)[C@@H]1CCCN1C(=O)[C@H](CO)NC(=O)[C@H](CO)NC(=O)[C@H](Cc1c[nH]cn1)NC(=O)[C@H](CCCNC(=N)N)NC(=O)[C@H](CC(C)C)NC(=O)[C@H](Cc1ccccc1)NC(=O)[C@H](CCC(=O)O)NC(=O)[C@H](C)NC(=O)[C@H](CC(C)C)NC(=O)[C@H](CCCNC(=N)N)NC(=O)[C@H](CCC(N)=O)NC(=O)[C@@H](NC(=O)[C@H](C)NC(=O)[C@@H]1CSSC[C@H](NC(=O)[C@@H](N)CCCCNC(=O)CC[C@H](NC(=O)CCCCCCCCCCCCCCCCCCC(=O)O)C(=O)O)C(=O)N[C@@H](CC(N)=O)C(=O)N[C@@H]([C@@H](C)O)C(=O)N[C@@H](C)C(=O)N[C@@H]([C@@H](C)O)C(=O)N1)[C@@H](C)O)C(=O)N1CCC[C@H]1C(=O)N[C@@H](CO)C(=O)N[C@@H](CO)C(=O)N[C@H](C(=O)N[C@@H](CC(N)=O)C(=O)N[C@H](C(=O)NCC(=O)N[C@@H](CO)C(=O)N[C@@H](Cc1c[nH]cn1)C(=O)N[C@H](C(=O)N[C@@H](Cc1ccc(O)cc1)C(N)=O)[C@@H](C)O)C(C)C)[C@@H](C)O) |
| 0.387 | 6.3 | 405 | 2540 | K([γGlu-C20 diacid])CNTATCATQRLAEFLRHSSPNFGAIPSSTNVGHETY-NH2 (disulfide 2-7; N-terminus assumed; SMILES CC[C@H](C)[C@H](NC(=O)[C@H](C)NC(=O)CNC(=O)[C@H](Cc1ccccc1)NC(=O)[C@H](CC(N)=O)NC(=O)[C@@H]1CCCN1C(=O)[C@H](CO)NC(=O)[C@H](CO)NC(=O)[C@H](Cc1c[nH]cn1)NC(=O)[C@H](CCCNC(=N)N)NC(=O)[C@H](CC(C)C)NC(=O)[C@H](Cc1ccccc1)NC(=O)[C@H](CCC(=O)O)NC(=O)[C@H](C)NC(=O)[C@H](CC(C)C)NC(=O)[C@H](CCCNC(=N)N)NC(=O)[C@H](CCC(N)=O)NC(=O)[C@@H](NC(=O)[C@H](C)NC(=O)[C@@H]1CSSC[C@H](NC(=O)[C@@H](N)CCCCNC(=O)CC[C@H](NC(=O)CCCCCCCCCCCCCCCCCCC(=O)O)C(=O)O)C(=O)N[C@@H](CC(N)=O)C(=O)N[C@@H]([C@@H](C)O)C(=O)N[C@@H](C)C(=O)N[C@@H]([C@@H](C)O)C(=O)N1)[C@@H](C)O)C(=O)N1CCC[C@H]1C(=O)N[C@@H](CO)C(=O)N[C@@H](CO)C(=O)N[C@H](C(=O)N[C@@H](CC(N)=O)C(=O)N[C@H](C(=O)NCC(=O)N[C@@H](Cc1c[nH]cn1)C(=O)N[C@@H](CCC(=O)O)C(=O)N[C@H](C(=O)N[C@@H](Cc1ccc(O)cc1)C(N)=O)[C@@H](C)O)C(C)C)[C@@H](C)O, also called compound 107) |
